Measurements taken from article PMC5861452.

Target: NS5A domain 1+ (WT) (Hepatitis C virus (replicon plasmid …, UniProt Q9WMX2 2005-2221))
Test: fluorescence polarization

Chain of NS5A domain 1+ (WT) (Hepatitis C virus (Q9WMX2 2005-2221): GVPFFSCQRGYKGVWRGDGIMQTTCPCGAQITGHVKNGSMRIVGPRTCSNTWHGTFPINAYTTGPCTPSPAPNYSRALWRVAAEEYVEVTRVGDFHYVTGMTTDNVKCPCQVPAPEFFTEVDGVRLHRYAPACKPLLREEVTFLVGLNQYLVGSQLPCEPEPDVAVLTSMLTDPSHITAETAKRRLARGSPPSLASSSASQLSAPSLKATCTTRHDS

Binder: GGCUGAGGCAGG (ssRNA) [RNA 1 (consensus sequence 1)]
- Kd: 10 ± 1.5 nM

Binder: UGUUUGUUUGUCCC (ssRNA) [RNA 3 (minimal GRE)]
- Kd: 100 ± 10 nM

Binder: AAAAAAAAAAAAAAA (ssRNA) [RNA 6 (A15)]
- Kd: 1000 ± 150 nM

Binder: GGGUGGGGGUGG (ssRNA) [RNA 2 (consensus derived)]
- Kd: 20 ± 2.7 nM
